The text below walks through data of paper PMC9756111, “Stabilization of DNA fork junctions by Smc5/6 complexes revealed by single-molecule imaging”.

Series [1] has as its target Smc5/6 holocomplex (budding yeast) (UniProt Q12749). The series is described as follows: single-molecule dual-colour Qdot co-detection (TIRF, DNA curtains); as a1, but buffer exchanged to 250 mM NaCl: Smc5/6 diffusing freely on double-tethered dsDNA (after equilibration on DNA); cluster size by statistical inference, assuming no unlabelled complexes (lower limit).
The target is the same in series [2]. Briefly: single-molecule dual-colour Qdot co-detection (TIRF, DNA curtains); Smc5/6 labelled with equal amounts of Qdot605 and Qdot705 anti-HA on the same epitope in 50 mM NaCl-Buffer R; puncta counted as they first appear on double-tethered dsDNA curtains (oligomers in solution), and binding at sites of previously bound Smc5/6; cluster size by statistical inference, assuming no unlabelled complexes (lower limit).

The target of series [3] is T1, Smc5/6 holocomplex (Saccharomyces cerevisiae (W303 …, UniProt Q08204;Q12749;Q07913;P38632;Q05541;P43124;Q03718;P40026 …)). Briefly: single-molecule capture on DNA curtain (TIRF); Smc5/6 preloaded on lambda dsDNA; 16 nM oligo; 1 mM ATP; mean about 4.0 oligos per punctum; Buffer R (composition not in material); dsDNA binding in 25 mM NaCl + 25 mM KCl, capture in 50 mM NaCl + 1 mM ATP; other steps 50-250 mM NaCl; pH and temperature not given in material. The note with it: protein: recombinant; tags: Smc6-3xStrepII; Nse4-His-3HA (Qdot anti-HA label); copies: 1;1;1;1;1;1;1;1; label: Alexa594; single stranded.

For series [4], the target named is T1, Smc5/6 holocomplex. The series is described as follows: single-molecule capture on DNA curtain (TIRF); Smc5/6 preloaded on lambda dsDNA; 1 mM ATP; mean about 3.2 per punctum; Buffer R (composition not in material); dsDNA binding in 25 mM NaCl + 25 mM KCl, capture in 50 mM NaCl + 1 mM ATP; other steps 50-250 mM NaCl; pH and temperature not given in material. As to conditions: protein: recombinant; tags: Smc6-3xStrepII; Nse4-His-3HA (Qdot anti-HA label); copies: 1;1;1;1;1;1;1;1; label: Alexa594; 3' overhang 9 nt on strand 2.

In series [1], “Smc5/6 holocomplex (from UniProt Q12749 1-1114; Q08204 1-1093; Q07913 1-336; P38632 1-267; Q05541 1-303; P43124 1-402; Q03718 1-556)” returned a N, mean cluster size with a truncated Poissonian model (Smc5/6 per punctum) of 3 to 4; a fraction of puncta with both colours of 67%; a stoichiometry N (Smc5/6 per punctum) of 2 to 3. Moreover, in series [2], the N, mean cluster size with a truncated Poissonian model (Smc5/6 per punctum) was 2 to 3; the fraction of binding events from solution with both colours is 39%; the fraction of complexes that oligomerized on DNA (bound to previously bound Smc5/6) is 10%; the stoichiometry N (Smc5/6 complexes per punctum) stood at 2.

B1: capture01 ssDNA-Alexa594 (ssDNA)
DNA: ATATATCTGACGCGTGCCTGGAGACTGGGGAGTAATCCTCTTGGCGGTTAAA
modifications: Alexa594 between ...GCGGTT and AAA
For the molecule B1, the binding result in the series with Smc5/6 holocomplex [3] is reported as “binds”.

B2: capture01/capture02 dsDNA-Alexa594 (dsDNA)
DNA 1: ATATATCTGACGCGTGCCTGGAGACTGGGGAGTAATCCTCTTGGCGGTTAAA
DNA 2: TTTAACCGCCAAGAGGATTACTCCCCAGTCTCCAGGCACGCGTCAGATATATACATCCTGT
modifications: Alexa594 between ...GCGGTT and AAA of strand 1
B2: the binding result with Smc5/6 holocomplex [4] is given as “binds”.
